This passage reports stoichiometry N results from paper PMC6648325.

Details in all cases: remark: other sources report otherwise
The target in assay [1] is T1, Cys106-oxidized DJ-1 recombinant protein (human), Q99497.
T1 chain: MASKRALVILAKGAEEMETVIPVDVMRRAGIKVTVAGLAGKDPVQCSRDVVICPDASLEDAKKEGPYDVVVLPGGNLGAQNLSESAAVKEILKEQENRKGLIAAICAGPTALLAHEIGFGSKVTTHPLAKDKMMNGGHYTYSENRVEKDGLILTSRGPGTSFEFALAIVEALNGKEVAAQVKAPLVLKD
The assay can be described thus: SEC.

In assay [2] the target is T1, Cys106-oxidized DJ-1 recombinant …. The assay can be described thus: high-speed atomic force microscopy.
Assay [3] shares this target. The assay can be described thus: SDS-PAGE of HMW bands.
For assay [4], the target named is T2, DJ-1 recombinant protein (human), Q99497.
T2 chain: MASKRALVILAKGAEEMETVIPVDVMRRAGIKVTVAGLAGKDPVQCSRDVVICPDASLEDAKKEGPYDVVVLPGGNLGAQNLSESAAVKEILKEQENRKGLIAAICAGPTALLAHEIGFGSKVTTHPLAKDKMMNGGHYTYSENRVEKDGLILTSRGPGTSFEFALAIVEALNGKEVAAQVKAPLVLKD
The assay can be described thus: SEC. (SEC sorts molecules by how far they enter the pores of the column.)

Assay [5] has the same target. The assay can be described thus: high-speed atomic force microscopy.

Several values for one entry are separate records, joined by “and”; a condition that tells them apart may be missing. Identical values can stand only once.

B1: Cys106-oxidized DJ-1 recombinant protein, Q99497 1-189 (natural protein)
chain: MASKRALVILAKGAEEMETVIPVDVMRRAGIKVTVAGLAGKDPVQCSRDVVICPDASLEDAKKEGPYDVVVLPGGNLGAQNLSESAAVKEILKEQENRKGLIAAICAGPTALLAHEIGFGSKVTTHPLAKDKMMNGGHYTYSENRVEKDGLILTSRGPGTSFEFALAIVEALNGKEVAAQVKAPLVLKD
On to B1, for which the stoichiometry N (usually a count of units in the complex or per binding partner) in assay [1] is 2; in assay [2], 4 and 6; in assay [3], 2 and 4.

B2: DJ-1 recombinant protein, Q99497 1-189 (natural protein)
chain: MASKRALVILAKGAEEMETVIPVDVMRRAGIKVTVAGLAGKDPVQCSRDVVICPDASLEDAKKEGPYDVVVLPGGNLGAQNLSESAAVKEILKEQENRKGLIAAICAGPTALLAHEIGFGSKVTTHPLAKDKMMNGGHYTYSENRVEKDGLILTSRGPGTSFEFALAIVEALNGKEVAAQVKAPLVLKD
Take B2: the stoichiometry N in assay [4] and in assay [5] was 2 in each case.
